Reference: publication PMC10197177, “Development of high affinity broadly reactive aptamers for spike protein of multiple SARS-CoV-2 variants†”

Target: Spike protein, wild-type (Wuhan) (SARS-CoV-2 (wild-type, original Wuhan …, UniProt P0DTC2 14-1213))
Test: ELONA; Tris buffer; […], pH 7.4, room temperature, spike immobilized; […], pH 7.4 ([…]
Settings: protein: recombinant; chain copies: 3; label: 3' biotin

B1: M40 (truncated working aptamer) (ssDNA)
DNA: ATCTACGAATTCTCCGCCAAGATAGAGGGTGGGCCGCGGAGAATTCACTGC
Kd: 0.155 ± 0.026 nM

B2: K1 (truncated working aptamer) (ssDNA)
DNA: AATGGATCCACATCTACGAGCTCGAACGCCCGGAGGAGACGGGGGCAGGGCGTGTTCACTGCAGACTTGACGAAGCT
Kd: 0.066 ± 0.004 nM

ACGAGCTCGAACGCCCGGAGGAGACGGGGGCAGGGCGTGTTCACTGC (ssDNA) [Oligo30]
Kd: 245 ± 8 nM

B3: Oligo14 (ssDNA)
DNA: CCACATCTACGAGCTCGAACGCCCGGAGGAGACGGGGGCAGGGCGTGTTCACTGCAGACTTGA
Kd: 5.29 ± 0.95 nM
